The values that follow come from US20220324934A1 (Stanford University, published 2022).

Test [1] has as its target T1, IL-2Rβ (UniProt P14784 27-240, limits assumed, biotinylated (site not stated)).
T1 construct: also called CD122; IL-2Rbeta
T1 sequence (looked up): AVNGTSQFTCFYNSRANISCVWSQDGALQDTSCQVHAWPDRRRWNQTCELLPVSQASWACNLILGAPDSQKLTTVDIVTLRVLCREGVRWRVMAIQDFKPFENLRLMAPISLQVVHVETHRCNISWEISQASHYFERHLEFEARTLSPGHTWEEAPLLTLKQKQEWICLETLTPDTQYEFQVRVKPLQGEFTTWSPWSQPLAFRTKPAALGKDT
In words: SPR Biacore T100, kinetic fit; biotinylated IL-2Rβ on chip. The procedure: (§1) To perform the surface plasmon resonance (SPR) analysis, the test variant protein was made in Expi293 as described previously. […] Experiments were performed on a BlAcore® T100 (GE Healthcare, Piscataway, N.J.).

Test [2] addresses T1, IL-2Rβ. As to the kind of experiment: SPR Biacore T100, steady-state; biotinylated IL-2Rβ on chip. How it is done:
as §1

B1: Super-2 (H9) IL-2 variant, expressed as MSA fusion protein (ligand, not shown: large carriers; small tags and cut ends)
chain: APTSSSTKKTQLQLEHLLLDLQMILNGINNYKNPKLTRMLTFKFYMPKKATELKHLQCLEEELKPLEEVLNLAQSKNFHFDPRDVVSNINVFVLELKGSETTFMCEYADETATIVEFLNRWITFCQSIISTLT
notes: also called H9 super-2; MSA-H9-super-2
Turning to B1, in the test with IL-2Rβ [1], the dissociation constant Kd came out at 0.0021 µM and the koff worked out at 0.0015 s⁻¹. Besides, the Kd in the test with IL-2Rβ [2] worked out at 0.0162 µM.

B2: in silico designed IL-2 variant SEQ ID NO: 15, MSA fusion protein (ligand, not shown: large carriers; small tags and cut ends)
chain: APTSSSTKKTQLQLEHLLLDLQMILNMLNNYDNPKLTRMLTFKFYMPKKATELKHLQCLEEELKPLEEALNQAQSKNFHLDPRDLISNINVIVLELKGSETTFMCEYADETATIIEFLNRWITFCQSIISTLT
In the test with IL-2Rβ [1], B2 displayed a dissociation constant Kd of 0.227 µM and a koff of 0.064 s⁻¹. Also, binding with IL-2Rβ [2] was put at a Kd of 0.498 µM.

B3: in silico designed IL-2 variant SEQ ID NO: 16, MSA fusion protein (ligand, not shown: large carriers; small tags and cut ends)
chain: APTSSSTKKTQLQLEHLLLDLQMILNMLNNYDNPKLTRLLTFKFYMPKKATSLKHLQCLEEELKPLEEALNQAQSKNFHLDPRDLISNINVIVLELKGSETTFMCEYADETATIIEFLNRWITFCQSIISTLT
As for B3, in the test with IL-2Rβ [1], the affinity, expressed as Kd, was 0.221 µM and the koff is 0.071 s⁻¹. The molecule further yielded a Kd with IL-2Rβ [2] of 0.29 µM.

B4: in silico designed IL-2 variant SEQ ID NO: 14, MSA fusion protein (ligand, not shown: large carriers; small tags and cut ends)
chain: APTSSSTKKTQLQLEHLLLDLQMILNMLNNYDNPKLTRMLTFKFYMPKKATELKHLQCLEEELKPLEEALNLAQSKNFHLDPRDLISNINVIVLELKGSETTFMCEYADETATIIEFLNRWITFCQSIISTLT
For B4, the Kd in the test with IL-2Rβ [1] came to 0.171 µM; in the test with IL-2Rβ [2] it was 0.196 µM. In the test with IL-2Rβ [1], the koff stood at 0.072 s⁻¹.

B5: in silico designed IL-2 variant SEQ ID NO: 17, MSA fusion protein (ligand, not shown: large carriers; small tags and cut ends)
chain: APTSSSTKKTQLQLEHLLLDLQMILNMLNNYDNPKLTRLLTFKFYMPKKATSLKHLQCLEEELKPLEEALNLAQSKNFHLDPRDLISNINVIVLELKGSETTFMCEYADETATIIEFLNRWITFCQSIISTLT
Take B5: the Kd with IL-2Rβ [1] is 0.241 µM; with IL-2Rβ [2], 0.268 µM. In the test with IL-2Rβ [1], this molecule came in with a koff of 0.091 s⁻¹.

B6: in silico designed IL-2 variant SEQ ID NO: 4, MSA fusion protein (ligand, not shown: large carriers; small tags and cut ends)
chain: APTSSSTKKTQLQLEHLLLDLQMILNMLNNYDNPKLTRLLTFKFYMPKKATSLKHLQCLEEELKPLEEALNQAGDDPKTIRDLISNINVIVLELKGSETTFMCEYADETATIIEFLNRWITFCQSIISTLT
In the test with IL-2Rβ [1], B6 yielded a Kd of 0.339 µM and a koff of 0.05 s⁻¹. In the test with IL-2Rβ [2], this molecule came in with a Kd of 0.389 µM.

B7: in silico designed IL-2 variant SEQ ID NO: 12, MSA fusion protein (ligand, not shown: large carriers; small tags and cut ends)
chain: APTSSSTKKTQLQLEHLLLDLQMILNMLNNYDNPKLTRMLTFKFYMPKKATELKHLQCLEEELKPLEEALNHAADDKDTIRDLISNINVIVLELKGSETTFMCEYADETATIIEFLNRWITFCQSIISTLT
In the test with IL-2Rβ [1], B7 had a Kd of 0.0512 µM and a koff of 0.023 s⁻¹. In the test with IL-2Rβ [2], this molecule gave a Kd of 0.0676 µM.

B8: in silico designed IL-2 variant SEQ ID NO: 8, MSA fusion protein (ligand, not shown: large carriers; small tags and cut ends)
chain: APTSSSTKKTQLQLEHLLLDLQMILNMLNNYDNPKLTRLLTFKFYMPKKATSLKHLQCLEEELKPLEEALNAADSTDERIRDVVSNINVFVLELKGSETTFMCEYADETATIIEFLNRWITFCQSIISTLT
In the test with IL-2Rβ [1], B8 yielded a Kd of 0.0059 µM and a koff of 0.0044 s⁻¹. The Kd with IL-2Rβ [2] turned out to be 0.0142 µM.

B9: in silico designed IL-2 variant SEQ ID NO: 11, MSA fusion protein (ligand, not shown: large carriers; small tags and cut ends)
chain: APTSSSTKKTQLQLEHLLLDLQMILNMLNNYSNPKLTRLLTFKFYMPKKATSLKHLQCLEEELKPLEEALNLASDDQDKVRDVVSNINVFVLELKGSETTFMCEYADETATIIEFLNRWITFCQSIISTLT
With B9, the Kd with IL-2Rβ [1] was determined as 0.0087 µM; with IL-2Rβ [2] it was 0.0227 µM. For the same molecule, the koff with IL-2Rβ [1] was determined as 0.0036 s⁻¹.

B10: in silico designed IL-2 variant SEQ ID NO: 10, MSA fusion protein (ligand)
chain: APTSSSTKKTQLQLEHLLLDLQMILNMLNNYDNPKLTRLLTFKFYMPKKATSLKHLQCLEEELKPLEEALNQASKDQKKVRDVVSNINVFVLELKGSETTFMCEYADETATIIEFLNRWITFCQSIISTLT
notes: not shown: mouse serum albumin (MSA), fusion partner
Regarding B10, in the test with IL-2Rβ [1], the equilibrium dissociation constant (Kd) was 0.105 µM and the koff is 0.015 s⁻¹. In the test with IL-2Rβ [2], this molecule registered a Kd of 0.137 µM.

B11: in silico designed IL-2 variant SEQ ID NO: 1, MSA fusion protein (ligand, not shown: large carriers; small tags and cut ends)
chain: APTSSSTKKTQLQLEHLLLDLQMILNMLNNYDNPKLTRLLTFKFYMPKKATSLKHLQCLEEELKPLEEALNAAGDDPKTIRDVVSNINVFVLELKGSETTFMCEYADETATIIEFLNRWITFCQSIISTLT
Turning to B11, the values for the Kd with IL-2Rβ [1] and with IL-2Rβ [2] were 0.025 µM and 0.0613 µM, respectively. The koff with IL-2Rβ [1] is 0.0066 s⁻¹.

B12: in silico designed IL-2 variant SEQ ID NO: 3, MSA fusion protein (ligand, not shown: large carriers; small tags and cut ends)
chain: APTSSSTKKTQLQLEHLLLDLQMILNMLNNYDNPKLTRLLTFKFYMPKKATSLKHLQCLEEELKPLEEALNAAGDDPKTIRDLISNINVIVLELKGSETTFMCEYADETATIIEFLNRWITFCQSIISTLT
As to B12, the Kd with IL-2Rβ [1] was 0.282 µM; in the test with IL-2Rβ [2], 0.366 µM. Also, the koff with IL-2Rβ [1] is 0.042 s⁻¹.

B13: in silico designed IL-2 variant SEQ ID NO: 5, MSA fusion protein (ligand, not shown: large carriers; small tags and cut ends)
chain: APTSSSTKKTQLQLEHLLLDLQMILNMLNNYDNPKLTRLLTFKFYMPKKATSLKHLQCLEEELKPLEEALNDAGDDPKTIRDLISNINVIVLELKGSETTFMCEYADETATIIEFLNRWITFCQSIISTLT
B13: in the test with IL-2Rβ [1], the Kd was found to be 0.292 µM and the koff came to 0.047 s⁻¹. In addition, in the test with IL-2Rβ [2], the Kd amounted to 0.362 µM.

B14: in silico designed IL-2 variant SEQ ID NO: 9, MSA fusion protein (ligand, not shown: large carriers; small tags and cut ends)
chain: APTSSSTKKTQLQLEHLLLDLQMILNMLNNYDNPKLTRLLTFKFYMPKKATSLKHLQCLEEELKPLEEALNQADSTDSRIRDLISNINVIVLELKGSETTFMCEYADETATIIEFLNRWITFCQSIISTLT
For the molecule B14, in the test with IL-2Rβ [1], the Kd was 0.33 µM and the koff was determined as 0.12 s⁻¹. In the test with IL-2Rβ [2], this molecule gave a Kd of 0.378 µM.

B15: in silico designed IL-2 variant SEQ ID NO: 7, MSA fusion protein (ligand, not shown: large carriers; small tags and cut ends)
chain: APTSSSTKKTQLQLEHLLLDLQMILNMLNNYDNPKLTRMLTFKFYMPKKATELKHLQCLEEELKPLEEALNQADSTDETVRDLISNINVIVLELKGSETTFMCEYADETATIIEFLNRWITFCQSIISTLT
For the molecule B15, in the test with IL-2Rβ [1], binding was characterised by a dissociation constant (Kd) of 0.0567 µM and the koff turned out to be 0.0026 s⁻¹. Besides, in the test with IL-2Rβ [2], the Kd was found to be 0.0854 µM.

B16: in silico designed IL-2 variant SEQ ID NO: 6, MSA fusion protein (ligand, not shown: large carriers; small tags and cut ends)
chain: APTSSSTKKTQLQLEHLLLDLQMILNMLNNYENPKLTRMLTFKFYMPKKATSLKHLQCLEEELKPLEEALNQAGDDPKTIRDLISNINVIVLELKGSETTFMCEYADETATIIEFLNRWITFCQSIISTLT
On to B16, for which, in the test with IL-2Rβ [1], the Kd came out at 0.315 µM and the koff was found to be 0.046 s⁻¹. The molecule further displayed a Kd with IL-2Rβ [2] of 0.398 µM.

B17: in silico designed IL-2 variant SEQ ID NO: 13, MSA fusion protein (ligand, not shown: large carriers; small tags and cut ends)
chain: APTSSSTKKTQLQLEHLLLDLQMILNMLNNASNPSLTRMLTFKFYMPKKATELKHLQCLEEELKPLEEALNTAADDQDKIRDLISNINVIVLELKGSETTFMCEYADETATIIEFLNRWITFCQSIISTLT
For B17, the Kd in the test with IL-2Rβ [1] is 0.174 µM; in the test with IL-2Rβ [2], 0.207 µM. Also, in the test with IL-2Rβ [1], the koff was found to be 0.036 s⁻¹.

B18: in silico designed IL-2 variant SEQ ID NO: 2, MSA fusion protein (ligand, not shown: large carriers; small tags and cut ends)
chain: APTSSSTKKTQLQLEHLLLDLQMILNMLNNYDNPKLTRLLTFKFYMPKKATELKHLQCLEEELKPLEEALNAAGDDPKTIRDLISNINVIVLELKGSETTFMCEYADETATIIEFLNRWITFCQSIISTLT
In the test with IL-2Rβ [1], B18 displayed a Kd of 0.332 µM and a koff of 0.055 s⁻¹. Moreover, the Kd with IL-2Rβ [2] is 0.411 µM.
